Results taken from PMC8782954, “Interplay between an ATP-binding cassette F protein and the ribosome from Mycobacterium tuberculosis” (Nature Communications, 2022).

B1: MtbEttA (energy-dependent translational throttle A from Mycobacterium tuberculosis, Rv2477c) (natural protein)
chain: SMAEFIYTMKKVRKAHGDKVILDDVTLSFYPGAKIGVVGPNGAGKSSVLRIMAGLDKPNNGDAFLATGATVGILQQEPPLNEDKTVRGNVEEGMGDIKIKLDRFNEVAELMATDYTDELMEEMGRLQEELDHADAWDLDAQLEQAMDALRCPPADEPVTNLSGGERRRVALCKLLLSKPDLLLLDEPTNHLDAESVQWLEQHLASYPGAILAVTHDRYFLDNVAEWILELDRGRAYPYEGNYSTYLEKKAERLAVQGRKDAKLQKRLTEELAWVRSGAKARQAKSKARLQRYEEMAAEAEKTRKLDFEEIQIPVGPRLGNVVVEVDHLDKGYDGRALIKDLSFSLPRNGIVGVIGPNGVGKTTLFKTIVGLETPDSGSVKVGETVKLSYVDQARAGIDPRKTVWEVVSDGLDYIQVGQTEVPSRAYVSAFGFKGPDQQKPAGVLSGGERNRLNLALTLKQGGNLILLDEPTNDLDVETLGSLENALLNFPGCAVVISHDRWFLDRTCTHILAWEGDDDNEAKWFWFEGNFGAYEENKVERLGVDAARPHRVTHRKLTRG
notes: also called Mtb Rv2477c
B2: ribosomal protein uS7 of the Mtb 30S subunit (natural protein)
chain: MPRKGPAPKRPLVNDPVYGSQLVTQLVNKVLLKGKKSLAERIVYGALEQARDKTGTDPVITLKRALDNVKPALEVRSRRVGGATYQVPVEVRPDRSTTLALRWLVGYSRQRREKTMIERLANEILDASNGLGASVKRREDTHKMAEANRAFAHYRW

How the values were obtained:
SEC = biological target: the molecule itself; experiment: SEC
[1] = biological target: B1; experiment: cryo-EM structure; details: both partners purified

Row | Binder | stoichiometry N (SEC) | binding result [1]
1 | B1 | 2 | 
2 | B2 |  | binds
